Assays:
Human C2, P06681 = target: T1, Human C2, P06681
T1 chain: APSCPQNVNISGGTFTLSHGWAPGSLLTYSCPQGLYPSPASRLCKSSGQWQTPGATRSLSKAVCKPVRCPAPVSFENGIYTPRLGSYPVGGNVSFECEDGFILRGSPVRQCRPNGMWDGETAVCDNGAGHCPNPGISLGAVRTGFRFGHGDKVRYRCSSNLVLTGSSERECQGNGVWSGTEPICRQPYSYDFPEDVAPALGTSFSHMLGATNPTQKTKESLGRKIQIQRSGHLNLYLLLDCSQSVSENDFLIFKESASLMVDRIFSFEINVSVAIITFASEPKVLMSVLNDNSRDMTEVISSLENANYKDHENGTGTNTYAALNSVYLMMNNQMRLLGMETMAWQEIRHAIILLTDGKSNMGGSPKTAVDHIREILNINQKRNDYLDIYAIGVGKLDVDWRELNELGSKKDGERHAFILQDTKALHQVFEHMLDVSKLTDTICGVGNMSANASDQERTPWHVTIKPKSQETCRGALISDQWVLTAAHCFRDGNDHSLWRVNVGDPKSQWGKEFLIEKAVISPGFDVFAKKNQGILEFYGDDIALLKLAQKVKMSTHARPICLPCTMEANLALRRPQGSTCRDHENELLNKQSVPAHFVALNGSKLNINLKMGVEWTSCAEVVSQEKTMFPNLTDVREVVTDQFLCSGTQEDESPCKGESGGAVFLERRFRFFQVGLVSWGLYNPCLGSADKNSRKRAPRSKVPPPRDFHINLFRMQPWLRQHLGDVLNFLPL

[1] = target: T2, alpha-2-macroglobulin, P01023
T2 chain: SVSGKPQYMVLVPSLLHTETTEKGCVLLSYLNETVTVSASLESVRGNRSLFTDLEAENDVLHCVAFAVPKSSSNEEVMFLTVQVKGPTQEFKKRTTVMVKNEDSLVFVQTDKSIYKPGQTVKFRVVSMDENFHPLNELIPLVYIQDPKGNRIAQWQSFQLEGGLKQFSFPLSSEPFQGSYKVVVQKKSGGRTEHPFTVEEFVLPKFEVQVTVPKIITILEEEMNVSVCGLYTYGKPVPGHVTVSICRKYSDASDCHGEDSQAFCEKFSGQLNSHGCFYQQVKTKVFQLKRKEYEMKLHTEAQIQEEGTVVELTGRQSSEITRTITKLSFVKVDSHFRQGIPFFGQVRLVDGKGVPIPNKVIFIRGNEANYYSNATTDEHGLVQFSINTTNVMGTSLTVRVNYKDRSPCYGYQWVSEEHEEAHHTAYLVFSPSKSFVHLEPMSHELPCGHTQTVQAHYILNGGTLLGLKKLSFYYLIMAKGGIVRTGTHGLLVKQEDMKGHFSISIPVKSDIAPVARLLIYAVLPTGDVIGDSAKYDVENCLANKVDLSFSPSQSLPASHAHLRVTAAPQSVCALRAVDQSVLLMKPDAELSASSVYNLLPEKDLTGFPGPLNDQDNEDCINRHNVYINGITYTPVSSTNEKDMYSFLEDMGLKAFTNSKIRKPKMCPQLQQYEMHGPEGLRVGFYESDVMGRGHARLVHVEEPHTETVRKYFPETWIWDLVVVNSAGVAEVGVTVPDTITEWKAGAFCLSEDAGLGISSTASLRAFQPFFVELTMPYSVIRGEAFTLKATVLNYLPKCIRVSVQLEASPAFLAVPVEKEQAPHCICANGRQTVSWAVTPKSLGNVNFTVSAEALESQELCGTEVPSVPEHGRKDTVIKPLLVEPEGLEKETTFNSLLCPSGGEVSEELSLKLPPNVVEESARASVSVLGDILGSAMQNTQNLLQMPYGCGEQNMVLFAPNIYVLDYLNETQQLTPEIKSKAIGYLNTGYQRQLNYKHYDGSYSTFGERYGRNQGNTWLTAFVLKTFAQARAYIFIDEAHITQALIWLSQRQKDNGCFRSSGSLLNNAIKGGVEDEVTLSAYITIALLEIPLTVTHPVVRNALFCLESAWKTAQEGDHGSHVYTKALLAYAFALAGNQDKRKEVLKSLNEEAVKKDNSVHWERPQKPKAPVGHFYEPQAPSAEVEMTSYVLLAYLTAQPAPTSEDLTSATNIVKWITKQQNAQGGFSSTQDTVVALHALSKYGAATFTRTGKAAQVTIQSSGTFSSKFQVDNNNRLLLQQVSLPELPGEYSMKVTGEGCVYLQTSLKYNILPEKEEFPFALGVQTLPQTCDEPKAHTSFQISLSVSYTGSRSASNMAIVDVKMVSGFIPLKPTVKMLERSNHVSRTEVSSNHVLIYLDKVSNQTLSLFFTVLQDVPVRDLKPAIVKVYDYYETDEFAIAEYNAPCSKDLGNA

[2] = target: T3, C1r CCP2-SP S654A, P00736
T3 chain: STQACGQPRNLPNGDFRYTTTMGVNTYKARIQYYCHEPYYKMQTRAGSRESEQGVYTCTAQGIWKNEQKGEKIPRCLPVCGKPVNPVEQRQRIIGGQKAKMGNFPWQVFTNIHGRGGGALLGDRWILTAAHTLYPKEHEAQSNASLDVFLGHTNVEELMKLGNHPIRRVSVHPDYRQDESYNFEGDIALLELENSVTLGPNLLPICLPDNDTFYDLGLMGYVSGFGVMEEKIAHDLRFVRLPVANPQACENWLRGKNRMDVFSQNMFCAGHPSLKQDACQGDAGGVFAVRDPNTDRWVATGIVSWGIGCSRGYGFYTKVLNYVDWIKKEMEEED

Proenzyme C1s, P09871 = target: T4, Proenzyme C1s, P09871
T4 chain: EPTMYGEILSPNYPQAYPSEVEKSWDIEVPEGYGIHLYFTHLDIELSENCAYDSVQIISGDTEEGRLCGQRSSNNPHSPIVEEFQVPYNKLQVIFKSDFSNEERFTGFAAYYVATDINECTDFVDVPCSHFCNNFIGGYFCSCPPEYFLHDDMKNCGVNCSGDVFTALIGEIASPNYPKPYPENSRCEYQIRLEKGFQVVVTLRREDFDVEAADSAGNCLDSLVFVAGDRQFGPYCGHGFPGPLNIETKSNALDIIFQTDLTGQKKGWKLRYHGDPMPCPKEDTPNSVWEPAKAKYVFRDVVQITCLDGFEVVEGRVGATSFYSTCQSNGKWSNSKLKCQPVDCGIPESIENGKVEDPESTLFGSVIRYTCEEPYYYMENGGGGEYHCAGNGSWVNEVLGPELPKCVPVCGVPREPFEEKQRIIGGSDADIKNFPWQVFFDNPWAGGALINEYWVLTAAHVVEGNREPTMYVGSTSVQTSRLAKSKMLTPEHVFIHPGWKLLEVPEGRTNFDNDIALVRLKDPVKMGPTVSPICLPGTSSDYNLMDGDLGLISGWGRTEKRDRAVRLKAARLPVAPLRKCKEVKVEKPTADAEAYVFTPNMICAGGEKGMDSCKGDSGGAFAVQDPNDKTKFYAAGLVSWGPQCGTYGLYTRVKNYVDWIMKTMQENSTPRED

C1r SP S654A, P00736 = target: T5, C1r SP S654A, P00736
T5 chain: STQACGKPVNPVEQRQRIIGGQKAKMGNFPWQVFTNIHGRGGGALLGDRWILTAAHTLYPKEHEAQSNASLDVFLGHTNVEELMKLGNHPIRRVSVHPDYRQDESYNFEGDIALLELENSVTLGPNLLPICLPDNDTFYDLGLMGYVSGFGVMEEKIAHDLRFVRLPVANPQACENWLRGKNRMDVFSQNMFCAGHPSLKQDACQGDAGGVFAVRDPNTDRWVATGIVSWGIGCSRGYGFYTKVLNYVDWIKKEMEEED

[3] = target: 'live' C3 (C3 with an intact thiol ester bond), P01024
[4] = target: T6, C1r CCP1-CCP2-SP S654A, P00736
T6 chain: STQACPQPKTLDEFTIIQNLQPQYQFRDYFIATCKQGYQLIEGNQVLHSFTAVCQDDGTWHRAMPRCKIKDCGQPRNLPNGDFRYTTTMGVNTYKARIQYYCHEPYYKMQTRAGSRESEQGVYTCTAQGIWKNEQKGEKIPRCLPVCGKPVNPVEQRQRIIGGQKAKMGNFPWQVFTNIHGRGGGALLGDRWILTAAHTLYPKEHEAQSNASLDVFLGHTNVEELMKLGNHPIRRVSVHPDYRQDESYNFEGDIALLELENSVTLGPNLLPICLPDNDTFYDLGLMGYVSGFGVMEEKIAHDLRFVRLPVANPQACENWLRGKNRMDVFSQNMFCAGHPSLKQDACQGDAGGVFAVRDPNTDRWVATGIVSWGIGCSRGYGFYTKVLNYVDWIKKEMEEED

Chain of Human C4, P0C0L4 (P0C0L4 whole entry, looked up): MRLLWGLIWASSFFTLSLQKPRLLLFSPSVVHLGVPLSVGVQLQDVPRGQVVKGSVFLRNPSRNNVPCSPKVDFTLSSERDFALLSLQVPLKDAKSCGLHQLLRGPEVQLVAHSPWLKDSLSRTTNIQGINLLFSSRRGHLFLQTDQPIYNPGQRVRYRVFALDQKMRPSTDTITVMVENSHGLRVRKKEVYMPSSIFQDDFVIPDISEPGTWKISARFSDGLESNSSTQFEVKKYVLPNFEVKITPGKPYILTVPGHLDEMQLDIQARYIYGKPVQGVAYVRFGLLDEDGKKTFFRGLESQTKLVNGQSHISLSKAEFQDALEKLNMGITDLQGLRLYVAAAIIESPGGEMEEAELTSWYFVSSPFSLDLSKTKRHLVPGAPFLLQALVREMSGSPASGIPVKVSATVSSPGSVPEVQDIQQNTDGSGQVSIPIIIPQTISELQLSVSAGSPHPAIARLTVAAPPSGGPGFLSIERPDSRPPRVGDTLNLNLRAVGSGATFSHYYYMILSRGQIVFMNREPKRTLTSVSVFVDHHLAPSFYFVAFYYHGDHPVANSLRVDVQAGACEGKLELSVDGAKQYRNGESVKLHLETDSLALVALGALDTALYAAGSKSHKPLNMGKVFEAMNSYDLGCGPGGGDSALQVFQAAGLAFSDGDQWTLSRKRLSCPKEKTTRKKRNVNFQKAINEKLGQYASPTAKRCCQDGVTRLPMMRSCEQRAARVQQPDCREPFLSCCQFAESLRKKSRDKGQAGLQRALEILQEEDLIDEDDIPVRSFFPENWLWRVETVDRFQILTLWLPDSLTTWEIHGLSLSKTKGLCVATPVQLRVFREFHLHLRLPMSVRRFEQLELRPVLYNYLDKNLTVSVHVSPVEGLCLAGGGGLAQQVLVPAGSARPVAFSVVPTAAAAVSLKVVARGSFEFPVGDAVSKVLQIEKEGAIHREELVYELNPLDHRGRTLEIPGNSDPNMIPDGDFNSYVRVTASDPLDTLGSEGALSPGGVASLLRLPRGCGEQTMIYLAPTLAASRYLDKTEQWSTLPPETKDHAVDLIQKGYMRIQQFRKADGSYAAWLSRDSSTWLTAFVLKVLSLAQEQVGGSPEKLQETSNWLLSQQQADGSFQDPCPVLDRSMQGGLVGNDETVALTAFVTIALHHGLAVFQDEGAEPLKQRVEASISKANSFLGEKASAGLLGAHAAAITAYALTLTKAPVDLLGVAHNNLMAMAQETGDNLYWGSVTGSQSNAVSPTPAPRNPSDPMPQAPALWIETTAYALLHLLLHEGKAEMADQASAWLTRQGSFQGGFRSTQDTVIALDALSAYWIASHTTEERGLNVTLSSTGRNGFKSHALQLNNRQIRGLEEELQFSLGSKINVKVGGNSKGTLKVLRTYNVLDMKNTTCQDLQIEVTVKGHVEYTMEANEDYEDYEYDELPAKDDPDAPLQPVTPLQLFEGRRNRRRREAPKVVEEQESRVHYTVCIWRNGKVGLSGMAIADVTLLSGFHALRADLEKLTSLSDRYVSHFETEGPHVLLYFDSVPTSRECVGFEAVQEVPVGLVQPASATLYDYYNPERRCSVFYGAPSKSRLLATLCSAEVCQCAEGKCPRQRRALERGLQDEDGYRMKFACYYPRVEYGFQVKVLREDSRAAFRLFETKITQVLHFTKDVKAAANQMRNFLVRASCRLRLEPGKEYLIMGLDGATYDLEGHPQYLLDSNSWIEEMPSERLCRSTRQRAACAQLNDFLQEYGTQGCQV
Chain of 'dead' C3(NH3), P01024 (P01024 whole entry, looked up): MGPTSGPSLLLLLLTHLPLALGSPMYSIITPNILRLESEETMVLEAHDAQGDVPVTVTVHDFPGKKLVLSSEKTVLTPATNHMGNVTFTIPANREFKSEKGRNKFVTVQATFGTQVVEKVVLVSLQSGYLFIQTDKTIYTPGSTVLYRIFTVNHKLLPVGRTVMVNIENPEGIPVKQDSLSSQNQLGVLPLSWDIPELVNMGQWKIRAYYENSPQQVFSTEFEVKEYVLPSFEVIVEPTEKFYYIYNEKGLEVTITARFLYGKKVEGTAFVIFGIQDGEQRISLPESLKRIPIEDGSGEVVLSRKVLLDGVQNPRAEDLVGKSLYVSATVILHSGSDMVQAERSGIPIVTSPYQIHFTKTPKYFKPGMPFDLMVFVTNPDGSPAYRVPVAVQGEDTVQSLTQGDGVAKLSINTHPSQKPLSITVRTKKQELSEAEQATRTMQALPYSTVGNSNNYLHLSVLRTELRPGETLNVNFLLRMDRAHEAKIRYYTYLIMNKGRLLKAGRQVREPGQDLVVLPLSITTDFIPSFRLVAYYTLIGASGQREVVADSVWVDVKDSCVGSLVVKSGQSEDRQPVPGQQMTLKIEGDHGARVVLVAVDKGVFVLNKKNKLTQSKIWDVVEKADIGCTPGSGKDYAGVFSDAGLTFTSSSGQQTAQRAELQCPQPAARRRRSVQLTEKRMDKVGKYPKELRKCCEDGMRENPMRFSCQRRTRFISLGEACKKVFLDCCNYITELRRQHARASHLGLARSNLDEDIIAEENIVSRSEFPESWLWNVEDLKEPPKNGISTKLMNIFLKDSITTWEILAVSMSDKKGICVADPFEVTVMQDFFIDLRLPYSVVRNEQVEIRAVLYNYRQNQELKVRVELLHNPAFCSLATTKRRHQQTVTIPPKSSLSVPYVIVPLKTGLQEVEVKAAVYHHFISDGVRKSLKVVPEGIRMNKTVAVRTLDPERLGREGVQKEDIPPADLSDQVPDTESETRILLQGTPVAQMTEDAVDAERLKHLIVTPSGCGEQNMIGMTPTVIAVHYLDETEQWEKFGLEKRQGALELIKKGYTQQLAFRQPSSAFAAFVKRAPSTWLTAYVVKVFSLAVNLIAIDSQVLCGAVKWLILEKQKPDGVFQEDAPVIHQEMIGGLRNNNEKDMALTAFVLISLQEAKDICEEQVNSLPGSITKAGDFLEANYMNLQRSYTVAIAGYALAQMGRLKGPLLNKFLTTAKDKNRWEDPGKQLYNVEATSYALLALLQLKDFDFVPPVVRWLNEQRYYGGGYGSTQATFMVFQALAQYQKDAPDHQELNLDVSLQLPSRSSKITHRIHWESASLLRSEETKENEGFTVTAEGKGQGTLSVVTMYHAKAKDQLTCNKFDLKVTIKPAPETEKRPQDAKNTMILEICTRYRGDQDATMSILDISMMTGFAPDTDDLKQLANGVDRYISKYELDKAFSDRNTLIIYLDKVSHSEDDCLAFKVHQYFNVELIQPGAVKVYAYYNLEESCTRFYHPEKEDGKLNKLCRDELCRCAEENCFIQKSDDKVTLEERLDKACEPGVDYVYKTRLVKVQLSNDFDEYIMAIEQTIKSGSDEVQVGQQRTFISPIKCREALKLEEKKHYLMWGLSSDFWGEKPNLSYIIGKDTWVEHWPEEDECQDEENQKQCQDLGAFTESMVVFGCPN
Chain of 'live' C3 (C3 with an intact thiol ester bond), P01024 (P01024 whole entry, looked up): as above

B1: MASP-2 CCP2-SP fragment (protein)
chain 1: ASMTIVDCGPPDDLPSGRVEYITGPGVTTYKAVIQYSCEETFYTMKVNDGKYVCEADGFWTSSKGEKSLPVCEPVCGLSARTTGGR
chain 2: IYGGQKAKPGDFPWQVLILGGTTAAGALLYDNWVLTAAHAVYEQKHDASALDIRMGTLKRLSPHYTQAWSEAVFIHEGYTHDAGFDNDIALIKLNNKVVINSNITPICLPRKEAESFMRTDDIGTASGWGLTQRGFLARNLMYVDIPIVDHQKCTAAYEKPPYPRGSVTANMLCAGLESGGKDSCRGDSGGALVFLDSETERWFVGGIVSWGSMNCGEAGQYGVYTKVINYIPWIENIISDF
KM, C4 cleavage (Human C4, P0C0L4): 0.4 µM | fold increase in the kcat/KM value of C4 cleavage against the SP domain alone (Human C4, P0C0L4): a 44-fold increase in the kcat/KM value | kcat, C4 cleavage (Human C4, P0C0L4): 2 s⁻¹ | kcat/KM, C4 cleavage (Human C4, P0C0L4): 5.7e+06 M⁻¹ s⁻¹ | KM, C2 cleavage (Human C2, P06681): 2.7 µM | kcat, C2 cleavage (Human C2, P06681): 3 s⁻¹ | kcat/KM, C2 cleavage (Human C2, P06681): 1.3e+06 M⁻¹ s⁻¹ | molar excess needed to abolish cleavage of complement substrates [1]: or with a large molar excess (40 fold) of alpha-2-macroglobulin

B2: MASP-2 SP fragment (protein)
chain 1: ASMTPVCGLSARTTGGR
chain 2: IYGGQKAKPGDFPWQVLILGGTTAAGALLYDNWVLTAAHAVYEQKHDASALDIRMGTLKRLSPHYTQAWSEAVFIHEGYTHDAGFDNDIALIKLNNKVVINSNITPICLPRKEAESFMRTDDIGTASGWGLTQRGFLARNLMYVDIPIVDHQKCTAAYEKPPYPRGSVTANMLCAGLESGGKDSCRGDSGGALVFLDSETERWFVGGIVSWGSMNCGEAGQYGVYTKVINYIPWIENIISDF
KM, C4 cleavage (Human C4, P0C0L4): 2 µM | kcat, C4 cleavage (Human C4, P0C0L4): 0.2 s⁻¹ | kcat/KM, C4 cleavage (Human C4, P0C0L4): 130000 M⁻¹ s⁻¹ | KM, C2 cleavage (Human C2, P06681): 3.2 µM | kcat, C2 cleavage (Human C2, P06681): 3.9 s⁻¹ | kcat/KM, C2 cleavage (Human C2, P06681): 2.5e+06 M⁻¹ s⁻¹ | molar excess needed to abolish cleavage of complement substrates [1]: or with a large molar excess (40 fold) of alpha-2-macroglobulin

B3: C1r CCP1-CCP2-SP fragment (wild-type) (protein)
chain 1: STQACPQPKTLDEFTIIQNLQPQYQFRDYFIATCKQGYQLIEGNQVLHSFTAVCQDDGTWHRAMPRCKIKDCGQPRNLPNGDFRYTTTMGVNTYKARIQYYCHEPYYKMQTRAGSRESEQGVYTCTAQGIWKNEQKGEKIPRCLPVCGKPVNPVEQRQR
chain 2: IIGGQKAKMGNFPWQVFTNIHGRGGGALLGDRWILTAAHTLYPKEHEAQSNASLDVFLGHTNVEELMKLGNHPIRRVSVHPDYRQDESYNFEGDIALLELENSVTLGPNLLPICLPDNDTFYDLGLMGYVSGFGVMEEKIAHDLRFVRLPVANPQACENWLRGKNRMDVFSQNMFCAGHPSLKQDACQGDSGGVFAVRDPNTDRWVATGIVSWGIGCSRGYGFYTKVLNYVDWIKKEMEEED
kcat/KM, cleavage of S654A zymogen [2]: 15900 s^-1M^-1 | kcat/KM, C1s cleavage (Proenzyme C1s, P09871): 58000 s^-1M^-1 | kcat/KM, cleavage of S654A zymogen (C1r SP S654A, P00736): 45000 s^-1M^-1 | cleavage of 'live' C3 (control) [3]: we observed no cleavages of either 'live' or 'dead' C3 | cleavage of 'dead' C3 (control) ('dead' C3(NH3), P01024): we observed no cleavages of either 'live' or 'dead' C3 | kcat/KM, cleavage of S654A zymogen [4]: 6200 s^-1M^-1

B4: C1r SP fragment (wild-type) (protein)
chain 1: STQACGKPVNPVEQRQR
chain 2: IIGGQKAKMGNFPWQVFTNIHGRGGGALLGDRWILTAAHTLYPKEHEAQSNASLDVFLGHTNVEELMKLGNHPIRRVSVHPDYRQDESYNFEGDIALLELENSVTLGPNLLPICLPDNDTFYDLGLMGYVSGFGVMEEKIAHDLRFVRLPVANPQACENWLRGKNRMDVFSQNMFCAGHPSLKQDACQGDSGGVFAVRDPNTDRWVATGIVSWGIGCSRGYGFYTKVLNYVDWIKKEMEEED
kcat/KM, cleavage of S654A zymogen [2]: 75000 s^-1M^-1 | kcat/KM, C1s cleavage (Proenzyme C1s, P09871): 28000 s^-1M^-1 | kcat/KM, cleavage of S654A zymogen (C1r SP S654A, P00736): 71000 s^-1M^-1 | kcat/KM, cleavage of S654A zymogen [4]: 72000 s^-1M^-1

B5: C1r CCP2-SP fragment (wild-type) (protein)
chain 1: STQACGQPRNLPNGDFRYTTTMGVNTYKARIQYYCHEPYYKMQTRAGSRESEQGVYTCTAQGIWKNEQKGEKIPRCLPVCGKPVNPVEQRQR
chain 2: IIGGQKAKMGNFPWQVFTNIHGRGGGALLGDRWILTAAHTLYPKEHEAQSNASLDVFLGHTNVEELMKLGNHPIRRVSVHPDYRQDESYNFEGDIALLELENSVTLGPNLLPICLPDNDTFYDLGLMGYVSGFGVMEEKIAHDLRFVRLPVANPQACENWLRGKNRMDVFSQNMFCAGHPSLKQDACQGDSGGVFAVRDPNTDRWVATGIVSWGIGCSRGYGFYTKVLNYVDWIKKEMEEED
kcat/KM, cleavage of S654A zymogen [2]: 130000 s^-1M^-1 | kcat/KM, C1s cleavage (Proenzyme C1s, P09871): 208000 s^-1M^-1 | kcat/KM, cleavage of S654A zymogen (C1r SP S654A, P00736): 68000 s^-1M^-1 | kcat/KM, cleavage of S654A zymogen [4]: 74000 s^-1M^-1
